Here are results for 6 molecules from patent US20190092856A1 (published 2019).

In general, Kd refers to a measure of binding affinity in units of concentration. As a reminder, the koff is the rate constant with which the complex falls apart. A word on the kon: it is the rate constant with which the complex forms.

For test [1], the target named is T1, human OSM (recombinant, mammalian-cell derived, OSMN1-1) (human, UniProt P13725 26-221).
T1 construct: Precursor and mature (amino acids 1-184) forms were both expressed in HEK 293; also called hOSM; human oncostatin M
T1 sequence: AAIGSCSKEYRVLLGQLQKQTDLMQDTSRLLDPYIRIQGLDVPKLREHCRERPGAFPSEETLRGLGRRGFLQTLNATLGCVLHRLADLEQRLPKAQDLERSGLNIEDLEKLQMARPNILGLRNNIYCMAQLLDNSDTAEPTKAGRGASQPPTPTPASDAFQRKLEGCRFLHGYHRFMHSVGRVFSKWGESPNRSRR
In words: SPR competition, hOSM captured on immobilized M2 (competitor), sample at 300 nM. As to the method: (§1) The biosensor surface was prepared by coupling each test mAb to the carboxymethylated dextran surface of a CM-5 chip (Biacore, Cat# BR-1000-14) following the manufacturer's instructions. Approximately 4,000-15,000 RU (response units) of each test mAb were immobilized in one the instrument's four flow cells. Competition experiments were performed at 25 ° C. in running buffer (DPBS+0.005% P20+3 mM EDTA). Human OSM (in-house, OSMN1-1) was diluted to 30 nM in running buffer and injected at 3 μl/min for 3 minutes over each of the flow cells with immobilized mAb. […] The chip surface was regenerated by two 12-second pulses of 100 mM H3PO4 (Sigma, Cat# 7961) at 50 μl/min. The collected data were processed using BIAevaluation software version 3.2 (Biacore). First, the sensorgrams were aligned upon injection of human OSM. […] Flow-cell (Fc1, etc.) immobilized mAbs appear along the horizontal sample rows of Table 10.

Test [2] has as its target T1, human OSM (recombinant, mammalian-cell …). Nature of the test: SPR competition, hOSM captured on immobilized M54 (competitor), sample at 300 nM. The method, then: as §1
Test [3] shares this target. In words: SPR competition, hOSM captured on immobilized M69 (competitor), sample at 300 nM. As to the method: as §1
Test [4] has the same target. In words: SPR competition, hOSM captured on immobilized M71 (competitor), sample at 300 nM. The method, then:
as §1

For test [5] the target is unchanged. In words: SPR competition, second chip, hOSM captured on immobilized M2 (competitor), sample at 300 nM. The method, then: as §1
For test [6] the target is unchanged. In words: SPR competition, second chip, hOSM captured on immobilized M55 (competitor), sample at 300 nM. As to the method:
as §1

Test [7] shares this target. In words: SPR competition, second chip, hOSM captured on immobilized M64 (competitor), sample at 300 nM. As to the method: as §1
The target of test [8] is T2, Cynomolgus monkey (Macaca fascicularis) OSM, recombinant, in-house (cynomolgus monkey, UniProt P13725 26-221 (human entry), limits assumed).
T2 construct: His/AviTag construct expressed in HEK 293; also called Cyno OSM; cyno OSM
T2 chain: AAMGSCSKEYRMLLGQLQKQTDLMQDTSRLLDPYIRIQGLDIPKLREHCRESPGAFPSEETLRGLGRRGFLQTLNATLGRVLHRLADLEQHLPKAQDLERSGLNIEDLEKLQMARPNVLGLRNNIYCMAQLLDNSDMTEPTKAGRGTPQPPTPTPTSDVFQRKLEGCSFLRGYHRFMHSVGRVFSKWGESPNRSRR
In words: SPR (Biacore), KD for cyno OSM over KD for human OSM. The method, then: (§2) The binding affinities were measured using Surface Plasmon Resonance (SPR) with a Biacore 3000 optical biosensor (Biacore) using human or Cyno OSM constructs as described. […] Approximately 19,000 RU (response units) of anti-OSM antibody were immobilized in each of four flow cells. The kinetic experiments were performed at 25° C. in running buffer (DPBS+0.005% P20+3 mM EDTA). Serial dilutions Human and Cyno OSM ECD from 100 nM to 0.412 nM were prepared in running buffer. About 200 RU of mAb were captured on flow cells 2 to 4 of the sensor chip. Flow cell 1 was used as reference surface. Capture of mAb was followed by a three-minute injection (association phase) of antigen at 50 μl/min, followed by 10 minutes of buffer flow (dissociation phase). The chip surface was regenerated by two pulses of 18-second injections of 100 mM H3PO4 (Sigma, Cat. No. 7961) at 50 μl/min.
(§3) The collected data was processed using the BIAevaluation software (Biacore, version 3.2). First, double reference subtraction of the data was performed by subtracting the curves generated by buffer injection from the reference-subtracted curves for analyte injections. Kinetic analysis of the data was performed using 1:1 binding model with global fit. The result for each mAb was reported in the format of Ka (On-rate), Kd (Off-rate) and KD (affinity constant).
Background: SPR reads the build-up and loss of mass on a sensor chip optically.

The target of test [9] is T1, human OSM (recombinant, mammalian-cell …). Nature of the test: SPR (Biacore), mAb captured by anti-Fc, OSM as analyte. As to the method:
as §2, §3

Test [10] has as its target T2, Cynomolgus monkey (Macaca fascicularis) …. Described as above. As to the method:
as §2, §3

Test [11] deals with T1, human OSM (recombinant, mammalian-cell …). Nature of the test: cell-based or functional assay.
Test [12] has the same target. In words: cell-based or functional assay. This is another data set of the same source.
The target in test [13] is T3, native human Oncostatin M (macrophage-derived) (human, UniProt P13725 26-221, limits assumed).
T3 sequence: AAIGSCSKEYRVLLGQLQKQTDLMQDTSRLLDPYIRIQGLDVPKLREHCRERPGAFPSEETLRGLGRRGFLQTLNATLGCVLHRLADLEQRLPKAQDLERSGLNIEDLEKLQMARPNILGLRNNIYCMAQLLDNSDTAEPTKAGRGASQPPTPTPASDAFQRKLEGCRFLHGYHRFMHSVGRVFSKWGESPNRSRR
Nature of the test: cell-based or functional assay.

For test [14], the target named is T4, CHO cell-derived recombinant human oncostatin M (in-house) (human, UniProt P13725 26-221, limits assumed).
T4 sequence: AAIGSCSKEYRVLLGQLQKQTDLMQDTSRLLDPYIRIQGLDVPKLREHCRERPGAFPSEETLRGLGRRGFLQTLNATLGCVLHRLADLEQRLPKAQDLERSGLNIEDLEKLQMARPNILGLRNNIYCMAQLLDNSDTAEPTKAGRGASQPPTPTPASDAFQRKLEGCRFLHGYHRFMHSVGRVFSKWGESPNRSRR
In words: cell-based or functional assay.

Test [15] concerns the target T5, CHO cell-derived recombinant cynomolgous monkey oncostatin M (in-house) (cynomolgus monkey, UniProt P13725 26-221 (human entry), limits assumed).
T5 chain: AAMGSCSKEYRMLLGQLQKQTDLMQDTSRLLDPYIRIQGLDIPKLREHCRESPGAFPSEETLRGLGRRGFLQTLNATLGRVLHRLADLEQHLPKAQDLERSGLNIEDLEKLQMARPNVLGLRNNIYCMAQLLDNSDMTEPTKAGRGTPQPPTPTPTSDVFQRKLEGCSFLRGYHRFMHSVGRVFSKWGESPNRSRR
In words: cell-based or functional assay.

B1: Human gp130-Fc (R&D Systems, Cat. No. 671-GP) (Fc fusion, UniProt P40189 23-619, looked up)
chain: ELLDPCGYISPESPVVQLHSNFTAVCVLKEKCMDYFHVNANYIVWKTNHFTIPKEQYTIINRTASSVTFTDIASLNIQLTCNILTFGQLEQNVYGITIISGLPPEKPKNLSCIVNEGKKMRCEWDGGRETHLETNFTLKSEWATHKFADCKAKRDTPTSCTVDYSTVYFVNIEVWVEAENALGKVTSDHINFDPVYKVKPNPPHNLSVINSEELSSILKLTWTNPSIKSVIILKYNIQYRTKDASTWSQIPPEDTASTRSSFTVQDLKPFTEYVFRIRCMKEDGKGYWSDWSEEASGITYEDRPSKAPSFWYKIDPSHTQGYRTVQLVWKTLPPFEANGKILDYEVTLTRWKSHLQNYTVNATKLTVNLTNDRYLATLTVRNLVGKSDAAVLTIPACDFQATHPVMDLKAFPKDNMLWVEWTTPRESVKKYILEWCVLSDKAPCITDWQQEDGTVHRTYLRGNLAESKCYLITVTPVYADGPGSPESIKAYLKQAPPSKGPTVRTKKVGKNEAVLEWDQLPVDVQNGFIRNYTIFYRTIIGNETAVNVDSSHTEYTLSSLTSDTLYMVRMAAYTDEGGKDGPEFTFTTPKFAQGEIE
notes: Bought fusion protein; also called gp130-Fc chimera; Fc part of the bought chimera not given, not described
Regarding B1, the “Binding Level (RU)” value amounted to 319 RU in test [1]; 17 RU in test [2]; 20 RU in [3]; 29 RU in test [4]; 251 RU in [5]; 25 RU in test [6]. Further, in test [7], the “Binding Level (RU)” value came out at 18 RU.

B2: M5 (antibody, V domains shown)
VH: EVQLVQSGAEVKKPGESLKISCKGSGYSFTSYWIGWVRQMPGKGLEWMGIIYPGDSDTRYSPSFQGQVTISADKSISTAYLQWSSLKASDTAMYYCARGFGASYLDYWGQGTLVTVSS
VL: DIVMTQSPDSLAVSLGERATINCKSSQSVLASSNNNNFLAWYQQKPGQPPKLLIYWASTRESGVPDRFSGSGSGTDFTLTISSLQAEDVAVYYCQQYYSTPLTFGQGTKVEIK
notes: Tested as full-length human IgG1; also called OSMM5; H135/L111
As for B2, the “KD ratio Cyno/Human” value in test [8] was 1. For the same molecule, in [9], the Kd was 11.8 nM, the koff was 0.000779 s⁻¹ and the kon was 65900 M⁻¹ s⁻¹. Further, in test [10], the Kd came to 12.1 nM, the off-rate constant (koff) stood at 0.00111 s⁻¹ and the on-rate (kon) was 92200 M⁻¹ s⁻¹.

B3: M10 (antibody, V domains shown)
VH: QVQLVQSGAEVKKPGSSVKVSCKASGGTFSSYAISWVRQAPGQGLEWMGGIIPIFGNANYAQKFQGRVTITADESTSTAYMELSSLRSEDTAVYYCARYGAKGLLDYWGQGTLVTVSS
VL: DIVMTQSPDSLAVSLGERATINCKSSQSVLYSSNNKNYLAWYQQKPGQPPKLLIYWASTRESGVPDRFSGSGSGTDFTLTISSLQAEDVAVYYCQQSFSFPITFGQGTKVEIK
notes: Tested as full-length human IgG1; also called OSMM10; H2/L2
On to B3, for which, in [8], the “KD ratio Cyno/Human” value came out at 18.1. Also, in test [9], the Kd worked out at 1.05 nM, the koff came to 6.3e-05 s⁻¹ and the kon came out at 60200 M⁻¹ s⁻¹. Also, in test [10], the Kd worked out at 18.9 nM, the koff worked out at 0.00101 s⁻¹ and the kon was 53300 M⁻¹ s⁻¹.

B4: M9 (antibody, V domains shown)
VH: EVQLVQSGAEVKKPGESLKISCKGSGYSFTSYWISWVRQMPGKGLEWMGIIYPGDSYTRYSPSFQGQVTISADKSISTAYLQWSSLKASDTAMYYCARVPVSPAYLDYWGQGTLVTVSS
VL: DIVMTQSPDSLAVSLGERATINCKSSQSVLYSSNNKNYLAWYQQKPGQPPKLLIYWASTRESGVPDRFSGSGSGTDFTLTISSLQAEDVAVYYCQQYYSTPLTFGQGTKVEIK
notes: Tested as full-length human IgG1; also called OSMM9
Turning to B4, the “pSTAT3 inhibition EC50 (A375 cells, 5 ng/ml hOSM)” value (“pSTAT3 inhibition EC50” below) in [11] is 1220 ng/ml. The “KD ratio Cyno/Human” value in test [8] worked out at 0.6. Also, in test [9], the Kd turned out to be 1.22 nM, the koff is 8.1e-05 s⁻¹ and the kon was determined as 66300 M⁻¹ s⁻¹. Also, in test [10], the Kd was 0.73 nM, the koff turned out to be 5.4e-05 s⁻¹ and the kon came to 73100 M⁻¹ s⁻¹.

B5: M6 (antibody, V domains shown)
VH: EVQLVQSGAEVKKPGESLKISCKGSGYSFTSYWISWVRQMPGKGLEWMGIIYPGDSYTRYSPSFQGQVTISADKSISTAYLQWSSLKASDTAMYYCARGSVFEAYFDYWGQGTLVTVSS
VL: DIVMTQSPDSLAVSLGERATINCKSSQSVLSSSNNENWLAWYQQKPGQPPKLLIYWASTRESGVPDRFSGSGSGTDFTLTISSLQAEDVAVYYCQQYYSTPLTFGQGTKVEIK
notes: Tested as full-length human IgG1; also called OSMM6; H14/L12
On to B5, for which the “pSTAT3 inhibition EC50” value in test [11] stood at 650 ng/ml. Further, the “KD ratio Cyno/Human” value in test [8] was 1.4. The values for the Kd in [9] and in test [10] were 1.03 nM and 1.48 nM, respectively. Moreover, the koff in test [9] came out at 0.000197 s⁻¹; in test [10], 0.000299 s⁻¹. Moreover, the kon in test [9] worked out at 192000 M⁻¹ s⁻¹; in test [10], 203000 M⁻¹ s⁻¹. For the same molecule, the “Binding Level (RU)” value in test [1] came to 985 RU; in test [2] it was 11 RU; in [3] it was 16 RU; in test [4], 19 RU; in [5], 926 RU; in test [6], 36 RU. In addition, the “Binding Level (RU)” value in [7] was found to be 33 RU.

B6: M71 (antibody, V domains shown)
VH: EVQLVQSGAEVKKPGESLKISCKGSGYSFTSYWISWVRQMPGKGLEWMGIIYPGDSYTRYSPSFQGQVTISADKSISTAYLQWSSLKASDTAMYYCARVPVSPAYLDYWGQGTLVTVSS
VL: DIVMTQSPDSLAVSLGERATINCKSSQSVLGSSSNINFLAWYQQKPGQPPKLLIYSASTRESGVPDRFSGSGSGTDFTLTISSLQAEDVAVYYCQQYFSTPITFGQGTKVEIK
notes: Human IgG1; also called H17/L180
Take B6: the “IC50, neutralization of OSM-induced STAT3 phosphorylation in NHLF cells (2 ng/ml OSM)” value in test [12] worked out at 0.0089 µg/mL. Further, the “EC50, increase of proteoglycan synthesis in macrophage-chondrocyte co-culture” value in test [13] was determined as 0.03 µg/mL. The “IC50, neutralization of OSM suppression of A375-S2 proliferation (BrdU)” value in test [14] was 0.0219 µg/mL; in [15] it was 0.0397 µg/mL. The “pSTAT3 inhibition EC50” value in test [11] is 160 ng/ml. The “Binding Level (RU)” value in test [1] is 1190 RU; in [2], -1 RU; in test [3], 23 RU; in test [4] it was 32 RU; in test [5], 1130 RU; in [6], 22 RU. Moreover, the “Binding Level (RU)” value in test [7] was 17 RU.
